Laboratory results as given in patent US12116387B2, “Antimicrobial peptides” (priority 2021, dated 2024).
Read-outs that look alike come from different tables or passages of the source.

Tested on: mice
Protocol: Therefore, the anti-infective activity of mast-MO was then tested in pre-clinical mouse models. First, the toxicity of a single dose of either mast-L or mast-MO administered peritoneally to mice was assessed in order to determine the range of concentrations to be used in subsequent animal experiments. The hemolytic activity of mast-MO (up to 200 μmoL^−1) against murine red blood cells (Table 6) was also tested prior to conducting animal experiments.
Systemic bacterial infection mouse model. Acute toxicity assay was performed based on the work of Navon-Venezia and co-workers (46). The experiment was performed by intraperitoneal (i.p.) injection of the tested peptides to groups of 10 C57BL/6 mice. Each mouse was injected with a 0.5 mL solution of freshly prepared of peptides in PBS. The doses of peptide administered per mouse were 0, 10, 30, 50, 70 and 90 mg Kg^−1 of body weight. Animals were directly inspected for adverse effects for 6 h, and mortality was monitored for 7 days thereafter. Differences between groups were analysed using the Fisher exact test (differences were considered to be statistically significant when the P value was <0.05). Briefly, E. coli ATCC8739 and E. coli 1812446 or S. aureus ATCC 29213 and S. aureus (MRSA) ATCC33591 were plated on tryptic soy agar plus 5% sheep blood (blood agar, Himedia, India) from a frozen stock. Following 24 h of incubation of the agar plate, three isolated colonies were transferred to 1 mL of BHI. The broth culture was incubated overnight (12-16 h) at 37° C. with shaking. […] Mice were challenged with either strain of E. coli ATCC8739 and E. coli 1812446 or S. aureus ATC29213 and S. aureus (MRSA) ATCC33591 in a final volume of 200 μL of PBS by intraperitoneal injection (i.p.). The day of challenge was designated as day 1 of the experiment. Three hours after bacterial injection, mice (n=5) were treated, intraperitoneally, with different concentrations of peptides (1, 5 or 10 mg Kg^−1), LL-37, gentamicin and 10 mg Kg^−1 of imipenem or PBS for 8 days. For bacterial load evaluation, 5 mice per group were used. Animals were humanely killed 24 h after bacterial administration. To detect bacterial colonization, the peritoneal lavage samples were collected under sterile conditions. The peritoneal lavage was obtained by washing the cavity with 5 mL of sterile PBS. Samples were diluted serially, and 100 μL of each dilution was spread in duplicate on appropriate agar plates for the count of developed colonies. Cytokine levels (i.e., IFN-γ, IL-6, IL−10, IL−12p70 and TNF-α) in the peritoneal lavage of the mice both in the absence and presence of peptide treatment were quantified by ELISA (Peprotech, USA) according to the manufacturer's instructions.

NLKALAALAKKIL [Mast-L]
Gross toxicity, number of mice (TL) (Dose 5 mg Kg^−1, five mice per group): 2 (TL-1)
Gross toxicity, number of mice (TL) (Dose 10 mg Kg^−1, five mice per group): 5
Dose above which highly toxic in preliminary mouse experiments (single dose, peritoneally): higher than 10 mg Kg^−1
